Patent publication US8124835B2, “Acyl-coa-dependent diacylglycerol acyltransferas 1 (DGAT1) gene from Tropaeolum majus, protein encoded thereby and uses thereof” (National Research Council of Canada, priority 2006, dated 2012)
Entries after “also recorded” stand apart in the source; their conditions may differ.

Tested on: DGAT activity
Assay: DGAT activity of site-directed mutagenized (SDM) TmDGAT1s expressed in yeast quadruple mutant H1246 MATα
Assay type: biochemical, Tropaeolum majus
From the text: FIG. 13. Expression of site-directed mutagenized (SDM) TmDGAT1 cDNAs in yeast quadruple mutant H1246 MATα. (A) The nasturtium DGAT1 cDNAs in pYES2/NT plasmid were transformed into a yeast DGAT mutant strain: H1246 MATα. The specific SDM changes were: F2R=Phe^439 to Arg (SEQ. ID. NO: 4, refer to SEQ. ID. NO: 10 for the nucleotide sequence); P2R=Pro^216 to Arg (SEQ. ID. NO: 5, refer to SEQ. ID. NO: 11 for the nucleotide sequence); Y2G_W2G=Tyr^392 to Gly+Trp^395 to Gly (SEQ. ID. NO: 9, refer to SEQ. ID. NO: 15 for the nucleotide sequence); Y2A=Tyr^392 to Ala (SEQ. ID. NO: 8, refer to SEQ. ID. NO: 14 for the nucleotide sequence); S2A=Ser^197 to Ala (SEQ. ID. NO: 6, refer to SEQ. ID. NO: 12 for the nucleotide sequence) and E2V=E^145 to Val (SEQ. ID. NO: 7, refer to SEQ. ID. NO: 13 for the nucleotide sequence). Yeast cells transformed with pYES2/NT plasmid only was used as a control. The mutant, transformed with the native TmDGAT1, was used as a positive DGAT control. Following the induction in the presence of galactose, the transformants were lysed and assayed for DGAT activity. (B) Western blot of the SDM TmDGATs using an Anti-Xpress antibody. Following a 7 h lyse, a 15,000×g protein pellet isolated and proteins separated by SDS-PAGE.
FIG. 14. SDM TmDGATs (SnRK1 and Tyr-P sites) activity utilizing ^14C labeled erucoyl-CoA or oleoyl-CoA+sn-1,2-diolein or dierucin. SDM TmDGATs were transformed into yeast DGAT mutant, H1246 MATα, following induction by galactose the yeast were assayed for DGAT activity. Activity is expressed as a percent of native TmDGAT, with native TmDGAT activity set at 100%.
The TmDGAT1 ORF (SEQ. ID. NO: 2) in pYES2.1/V5-His-TOPO plasmid was transformed into a quadruple yeast mutant H1246MATα (Sandager et al, 2002) using the S.c. EasyComp™ transformation Kit (Invitrogen). Yeast cells transformed with pYES2.1/V5-His-TOPO plasmid only were used as a control. Transformants were selected by growth on synthetic complete medium lacking uracil (SC-ura), supplemented with 2% (w/v) glucose. The colonies were transferred into liquid SC-ura with 2% (w/v) glucose and grown at 28° C. overnight. The overnight cultures were diluted to an OD of 0.4 in induction medium (SC-ura+2% Galactose+1% Raffinose), and were induced for 24-36 hours at 28° C. Cells were collected and broken using glass beads. The crude protein concentration in the lysates was normalized using the Biorad assay based on the method of (Bradford, 1976) and assayed for DGAT activity. DGAT assays were conducted at pH 7.4, with shaking at 100 rev/min in a water bath at 30° C. for 60 min. Assay mixtures (0.5 ml final volume) contained 500 μg lysate protein normalized as described above, 90 mM HEPES-NaOH, 200 μM sn-1,2 diolein or sn-1,2 dierucin (pre-purified by TLC on 10% borate silica H plates) in 0.02% Tween-20, and 18 μM 1-^14C acyl-CoA (specific activity 2 nCi/nmol) as the acyl donor. The ^14C-labelled TAGs were isolated and counted as described above for insect cell expression.
To introduce point mutations into the Tropaeolum majus DGAT1 coding region, we used a QuikChange™ site-directed mutagenesis kit (Stratagene). Primers were complementary to opposite strands of pYES2.1/V5-His TOPO yeast expression vector (Invitrogen) containing the TmDGAT1 gene. During the PCR, primers were extended with PfuTurbo DNA polymerase. This polymerase replicated both strands with high fidelity and without displacing the mutated oligonucleotide primers. The cycling parameters used for site-directed mutagenesis were as follows: initial denaturation at 95° C. for 30 s, followed by 15 cycles at 95° C. for 30 s, 55° C. for 1 min, and 68° C. for 15 min, with termination at 68° C. for 15 min. Following the PCR reaction, the product was treated with DpnI endonuclease (target sequence: 5′-Gm6ATC-3′) which is specific for methylated and hemimethylated DNA, used to digest the parental DNA template and to select for the mutated DNA.

[1] = recombinant SDM protein from yeast H1246MATα

B1: P216R (protein)
chain: MAVAESSQNTTTMSGHGDSDLNNFRRRKPSSSVIEPSSSGFTSTNGVPATGHVAENRDQDRVGAMENATGSVNLIGNGGGVVIGNEEKQVGETDIRFTYRPSFPAHRRVRESPLSSDAIFKQSHAGLFNLCIVVLIAVNSRLIIENLMKYGWLIDTGFWFSSRSLGDWSIFMCCLTLPIFPLAAFIVEKLVQRNHISELVAVLLHVIVSTAAVLYRVIVILTCDSVYMSGVVLMLFGCIMWLKLVSYAHTSSDIRTLAKSGYKGDAHPNSTIVSCSYDVSLKSLAYFMVAPTLCYQPSYPRSSCIRKGWVVRQFVKLIVFIGLMGFIIEQYINPIVRNSKHPLKGDFLYAIERVLKLSVPNLYVWLCMFYSFFHLWLNILAELLRFGDREFYKDWWNAKTVAEYWKMWNMPVHRWMVRHLYFPCLRNGIPKEGAIIIAFLVSGAFHELCIAVPCHVFKLWAFIGIMFQVPLVLITNYLQEKFSNSMVGNMIFWFIFCILGQPMCVLLYYHDLINLKEK
DGAT1 activity compared to recombinant WT TmDGAT1 (in words) (recombinant SDM protein from yeast H1246MATα, listed as Proline^216 (changed to an Arg)): total loss of DGAT activity; also recorded: abolished | DGAT1 activity compared to recombinant WT TmDGAT1 (in words) (recombinant SDM protein from yeast H1246MATα, listed as Proline^216 with Arginine): total loss of DGAT1 activity

B2: Y392A (protein)
chain: MAVAESSQNTTTMSGHGDSDLNNFRRRKPSSSVIEPSSSGFTSTNGVPATGHVAENRDQDRVGAMENATGSVNLIGNGGGVVIGNEEKQVGETDIRFTYRPSFPAHRRVRESPLSSDAIFKQSHAGLFNLCIVVLIAVNSRLIIENLMKYGWLIDTGFWFSSRSLGDWSIFMCCLTLPIFPLAAFIVEKLVQRNHISELVAVLLHVIVSTAAVLYPVIVILTCDSVYMSGVVLMLFGCIMWLKLVSYAHTSSDIRTLAKSGYKGDAHPNSTIVSCSYDVSLKSLAYFMVAPTLCYQPSYPRSSCIRKGWVVRQFVKLIVFIGLMGFIIEQYINPIVRNSKHPLKGDFLYAIERVLKLSVPNLYVWLCMFYSFFHLWLNILAELLRFGDREFAKDWWNAKTVAEYWKMWNMPVHRWMVRHLYFPCLRNGIPKEGAIIIAFLVSGAFHELCIAVPCHVFKLWAFIGIMFQVPLVLITNYLQEKFSNSMVGNMIFWFIFCILGQPMCVLLYYHDLINLKEK
decrease in DGAT1 activity compared to wild type TmDGAT1 [1]: 80%

B3: Y392G + W395G (protein)
chain: MAVAESSQNTTTMSGHGDSDLNNFRRRKPSSSVIEPSSSGFTSTNGVPATGHVAENRDQDRVGAMENATGSVNLIGNGGGVVIGNEEKQVGETDIRFTYRPSFPAHRRVRESPLSSDAIFKQSHAGLFNLCIVVLIAVNSRLIIENLMKYGWLIDTGFWFSSRSLGDWSIFMCCLTLPIFPLAAFIVEKLVQRNHISELVAVLLHVIVSTAAVLYPVIVILTCDSVYMSGVVLMLFGCIMWLKLVSYAHTSSDIRTLAKSGYKGDAHPNSTIVSCSYDVSLKSLAYFMVAPTLCYQPSYPRSSCIRKGWVVRQFVKLIVFIGLMGFIIEQYINPIVRNSKHPLKGDFLYAIERVLKLSVPNLYVWLCMFYSFFHLWLNILAELLRFGDREFGKDGWNAKTVAEYWKMWNMPVHRWMVRHLYFPCLRNGIPKEGAIIIAFLVSGAFHELCIAVPCHVFKLWAFIGIMFQVPLVLITNYLQEKFSNSMVGNMIFWFIFCILGQPMCVLLYYHDLINLKEK
DGAT1 activity compared to recombinant WT TmDGAT1 (in words) [1]: total loss of activity

B4: E145V: SDM TmDGAT1, Glu145 to Val in the catalytic site (SEQ ID NO: 7) (protein, listed as Tropaeolum majus)
chain: MAVAESSQNTTTMSGHGDSDLNNFRRRKPSSSVIEPSSSGFTSTNGVPATGHVAENRDQDRVGAMENATGSVNLIGNGGGVVIGNEEKQVGETDIRFTYRPSFPAHRRVRESPLSSDAIFKQSHAGLFNLCIVVLIAVNSRLIIVNLMKYGWLIDTGFWFSSRSLGDWSIFMCCLTLPIFPLAAFIVEKLVQRNHISELVAVLLHVIVSTAAVLYPVIVILTCDSVYMSGVVLMLFGCIMWLKLVSYAHTSSDIRTLAKSGYKGDAHPNSTIVSCSYDVSLKSLAYFMVAPTLCYQPSYPRSSCIRKGWVVRQFVKLIVFIGLMGFIIEQYINPIVRNSKHPLKGDFLYAIERVLKLSVPNLYVWLCMFYSFFHLWLNILAELLRFGDREFYKDWWNAKTVAEYWKMWNMPVHRWMVRHLYFPCLRNGIPKEGAIIIAFLVSGAFHELCIAVPCHVFKLWAFIGIMFQVPLVLITNYLQEKFSNSMVGNMIFWFIFCILGQPMCVLLYYHDLINLKEK
decrease in DGAT1 activity compared to wild type TmDGAT1 [1]: 43%

B5: S197A: SDM TmDGAT1, Ser197 to Ala in putative SnRK1 phosphorylation motif (SEQ ID NO: 6) (protein, listed as Tropaeolum majus)
chain: MAVAESSQNTTTMSGHGDSDLNNFRRRKPSSSVIEPSSSGFTSTNGVPATGHVAENRDQDRVGAMENATGSVNLIGNGGGVVIGNEEKQVGETDIRFTYRPSFPAHRRVRESPLSSDAIFKQSHAGLFNLCIVVLIAVNSRLIIENLMKYGWLIDTGFWFSSRSLGDWSIFMCCLTLPIFPLAAFIVEKLVQRNHIAELVAVLLHVIVSTAAVLYPVIVILTCDSVYMSGVVLMLFGCIMWLKLVSYAHTSSDIRTLAKSGYKGDAHPNSTIVSCSYDVSLKSLAYFMVAPTLCYQPSYPRSSCIRKGWVVRQFVKLIVFIGLMGFIIEQYINPIVRNSKHPLKGDFLYAIERVLKLSVPNLYVWLCMFYSFFHLWLNILAELLRFGDREFYKDWWNAKTVAEYWKMWNMPVHRWMVRHLYFPCLRNGIPKEGAIIIAFLVSGAFHELCIAVPCHVFKLWAFIGIMFQVPLVLITNYLQEKFSNSMVGNMIFWFIFCILGQPMCVLLYYHDLINLKEK
increase in trierucin production compared to the native DGAT1 (erucoyl-CoA:sn-1,2-dierucin pairing of substrates): ~40% | increase in DGAT1 activity compared to wild type TmDGAT1 [1]: up to 125%
